Measured values from patent publication US20170037149A1 (Amgen, published 2017).

These binders were tested against T1, human FLT3 (human, UniProt P36888 27-993) (assay: FACS, scFv on CHO-human FLT3 pre-incubated with FLT3 ligand (competitor)).
T1 construct: On transfected CHO cells, or on the FLT3 positive human AML cell lines EOL-1 / MV4-11 where the row says so; also called hu FLT3; full length human FLT3
Description: The detection was performed using mouse anti-FLAG+PE-conjugated goat anti-mouse and the Fluorescence median detected by FACS (median (+ligand)/median (w/o ligand)*100%)
Afterwards cells were not washed but directly stained with FLT3 binder (scFv's). […] As negative control, cells were incubated with an unspecific scFv instead of FLT3 scFv.
For the evaluation of the data, the fluorescence median was detected by FACS.

| median [+ligand]/median [w/o ligand]*100 [%] | Binder |
| --- | --- |
| ≥ 75 | FL-31 scFv (scFv, periplasmic prep) scFv: QVTLKESGPALVKPTQTLTLTCTFSGFSLSNARMGVSWIRQPPGKALEWLAHIFSNDEKSYSTSLKSRLTISKDTSKSQVVLTMTDMDPEDTATYYCARIVGYGTGWYGFFDYWGQGILVTVSSGGGGSGGGGSGGGGSDIQMTQSPSSLSASVGDRVTITCRTSQGIRNDLGWYQQKPGKAPKRLIYAASSLQSGVPSRFSGSGSGTEFTLTISSLQPEDFATYYCLQHNSYPLTFGGGTKVEIK |
| ≥ 75 | FL-19 scFv (scFv, periplasmic prep) scFv: QVTLKESGPTLVKPTETLTLTCTVSGFSLSYARMGVSWIRQPPGKALEWLAQIFSNDEKSYSTSLKSRLTISKDTSKSQVVLTMTDMDPEDTATYYCARIVGYGTGWYGYFDYWGQGTQVTVSSGGGGSGGGGSGGGGSDIQMTQSPSSLSASVGDRVTITCRASQDIGDDLGWYQQKPGKAPKRLIYAASTLQSGVPFRFSGSGSGTDFTLTISSLQPEDFATYYCLQHNSYPLTFGGGTKVEIK |
| ≥ 75 | FL-35 scFv (scFv, periplasmic prep) scFv: QVTLKESGPALVKPTETLTLTCTVSGFSLNNARMGVSWIRQPPGKALEWLAHIFSNDEKSYSTSLKNRLTISKDSSKTQVVLTMTNVDPVDTATYYCARIVGYGTGWYGFFDYWGQGTQVTVSSGGGGSGGGGSGGGGSDIQMTQSPSSLSASVGDRVTITCRASQDIRDDLVWYQQKPGKAPKRLIYGTSTLQSGVPSRFSGSGSGTEFTLTISSLQPEDFATYYCLQHHSYPLTFGGGTKLEIK |
| ≥ 75 | FL-30 scFv (scFv, periplasmic prep) scFv: QVTLKESGPVLVKPTQTLTLTCTFSGFSLSNARMGVSWIRQPPGKALEWLALIYWNDDKRYSPSLKSRLTITKDTSKNQVVLTMTNMDPVDTATYYCARMVGYGSGWYAYFDYWGQGTLVTVSSGGGGSGGGGSGGGGSDIQMTQSPSSLSASVGDRVTITCRASQGIRNDLGWYQQKPGKAPKRLIYAASSLQSGVPSRFSGSGSGTEFTLTISSLQPEDFATYYCLQHNSYPLTFGGGTKVEIK |
